Measured values reported in the supplement of paper PMC10567573.
± gives the standard deviation.

Assay: protein stability index of a GFP-peptide fusion (GPS, HEK-293T) (PSI 1-6); higher = more stable
[1] = treatment: DMSO, c terminus: a fixed tail appended
[2] = treatment: MLN4924 1 uM, 8 h, c terminus: a fixed tail appended
[3] = treatment: DMSO, c terminus: native
[4] = treatment: MLN4924 1 uM, 8 h, c terminus: native
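Also: 24-mer peptide tiles fused after GFP, lentivirally expressed, FACS-sorted into six equal bins by GFP/DsRed ratio, decoded by Illumina sequencing, PSI is the read-weighted mean bin number.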

Sequence	protein stability index [1]	protein stability index [2]	protein stability index [3]	protein stability index [4]
EEIPVVICAAAGRMGATMAAINSI [GLT8D2]	2.48 ± 0.52	2.22 ± 0.21	–	–
AALRLHRLLRDSEAFCHANCSGPA [P3H4]	2.1 ± 0.1	2.27 ± 0.27	–	–
YHINSISVNSDCETYMSADDLRIN [PPP2R2C]	2.89 ± 0.44	3.2 ± 0.29	–	–
LGNFFTTLRVVHHKFHSQRHGSKK [TMEM120A]	2.39 ± 0.21	2.54 ± 0.64	–	–
VRSGAWHFSFNVKFYPPDPAQLSE [EPB41L3]	1.98 ± 0.61	2.53 ± 0.18	–	–
SVILNHMAREHAFNIGLPDNIVNC [ZNF277]	1.98 ± 0.2	2.22 ± 0.45	–	–
IHSPAHPEIEKADDHLQQPLQNQK [ZNF649]	5.39 ± 0.16	5.35 ± 0.37	–	–
SAKLAPHYFHSISYKIEEISPSTL [KCNK9]	2.41 ± 0.23	2.31 ± 0.34	–	–
PNAGEQPGQVAGADFESEDEGEEF [EID1]	5.59 ± 0.28	5.46 ± 0.33	–	–
DGVPHLILIASRDIAAGEELLYDY [KMT5A]	1.98 ± 0.31	2.13 ± 0.099	–	–
YECGVCAKKFMWRDSFMRHRGHCE [ZBTB22]	5 ± 0.16	4.99 ± 0.17	–	–
AALSEENTGKTYFFVANKYWRYDE [MMP1]	2.49 ± 0.37	2.21 ± 0.18	–	–
SLHHTSECTQMDHLGCMHYTVRAP [ALDH8A1]	3.04 ± 0.13	3.06 ± 0.25	–	–
HILASAPTDRNLCHFQALGCRTTH [PYCR3]	2.19 ± 0.45	2.23 ± 0.15	–	–
TRNVQSVSIIDTELKVKDSQPIDL [TRIP13]	4.32 ± 0.16	4.55 ± 0.19	–	–
KPSENHPLHNSGLLSLDPVQDKTP [MED27]	4.984 ± 0.04	5.02 ± 0.22	–	–
STGEVYCRVPNSGKDEIEAAVKAA [ALDH8A1]	4.93 ± 0.4	4.94 ± 0.32	–	–
PPDSKEGIVVESNHDSHMAKERAH [PDZK1]	5.55 ± 0.36	5.55 ± 0.23	–	–
GTQFTFDQDPSVLYFSIHRYEQGR [HDAC6]	2.31 ± 0.51	2.52 ± 0.34	–	–
SGGSSSSFRAGSKGLSGGFGSRSL [KRT71]	3.32 ± 0.18	3.14 ± 0.13	–	–
PPQGGCGGGGCDRYEPLPPSLPAA [KCNA3]	4.53 ± 0.16	4.7 ± 0.23	–	–
LLASVPSNPNGNGGFMGYSAENIP [CRY1]	3.52 ± 0.45	3.41 ± 0.23	–	–
PAEAEGAAQELENQMKERQGLFFD [TMEM120A]	5.33 ± 0.1	5.26 ± 0.34	–	–

Sequence	protein stability index [1]	protein stability index [2]	protein stability index [3]	protein stability index [4]
NADGSYLCQCHEGFALNPDKKTCT [MATN2]	4.06 ± 0.14	4.2 ± 0.29	–	–
SADPARGLPRSRDCRVDLGSEVYR [PDLIM4]	3.74 ± 0.23	3.83 ± 0.09	–	–
WMKHNVADSQITTIGNLVPQKTYS [PTPRD]	3.29 ± 0.55	3.17 ± 0.29	–	–
NSDDSYTCECLEGFRLAEDGKRCR [MATN2]	3.54 ± 0.34	4.12 ± 0.67	–	–
REVAKELGIPYYETSVVAQFGIKD [RHOBTB2]	3.2 ± 0.43	3.39 ± 0.27	–	–
YLILALLSVTISFRIYKSVIQAVQ [RTN3]	3.42 ± 0.42	2.99 ± 0.48	–	–
RLPFLSAFERQQVENRVVEEAKGL [ZBED1]	4.17 ± 0.14	4.2 ± 0.22	–	–
KLFFVDTGSKEKGLTKKRTKVQKK [NOP53]	3.26 ± 0.13	3.83 ± 0.54	–	–
RLALRQRLKCRSFKWYLENVYPEM [GALNT9]	1.95 ± 0.22	2.35 ± 0.18	–	–
MMSLTKLADKELVHMISWAKKIPG [ESR2]	2.17 ± 0.19	2.16 ± 0.12	–	–
RFQDLVLRMLEYEPAARISPLGAL [DYRK1B]	2.67 ± 0.47	2.4 ± 0.43	–	–
KWRKVGRSLQRGCRALRDPALDSL [TRADD]	2.19 ± 0.16	2.54 ± 0.13	–	–
LMKHQTNISELKRTFLETSTDTAV [EPB41L3]	3.68 ± 0.79	3.92 ± 0.38	–	–
CIGLQNLKLLDELPIAKVMKDYLK [ASB7]	2.11 ± 0.28	2.27 ± 0.39	–	–
SQYFRSLFSSHPPLGGGVGGQDGL [KLHL14]	2.72 ± 0.17	2.87 ± 0.21	–	–
IDASQLPHRVLETRGHAISILFGF [SMIM2]	2.68 ± 0.54	2.51 ± 0.54	–	–
ARERAKLQIELGKCKAEHDQLLLN [LMNB1]	3.47 ± 0.098	3.14 ± 0.1	–	–
RLSVLLNLLPAAGELQESGLALCP [SMG5]	2.02 ± 0.39	2.07 ± 0.18	–	–
TLRRIQASMAPAAALPPVPSPPAA [SERTAD1]	3.6 ± 0.23	3.8 ± 0.31	–	–
KGLSGGFGSRSLYSLGGVRSLNVA [KRT71]	2.58 ± 0.26	2.41 ± 0.39	–	–
KKRYEEEINKRTAAENEFVLLKKD [KRT71]	5.07 ± 0.2	4.99 ± 0.27	–	–
STDNIVSQWDVLSGDCDQRFRFPS [RBBP5]	3.64 ± 0.1	3.67 ± 0.16	–	–
SSASYEKENEMMKSHVMDQAINNA [IKZF1]	4.78 ± 0.19	4.74 ± 0.28	–	–

Sequence	protein stability index [1]	protein stability index [2]	protein stability index [3]	protein stability index [4]
IEEACYAQTIPTKDRLEGLLAFKE [AUH]	3.73 ± 0.46	3.55 ± 0.69	–	–
PPRRSRSRSHDRLPYQRRYRERRD [CLK3]	4.51 ± 0.29	4.72 ± 0.32	–	–
RETASLKLLPHQPRIVEMKKGSNG [PDZK1]	3.75 ± 0.31	3.85 ± 0.32	–	–
DESAIDFSAYIDSMAAVPTLELCH [CEBPD]	3.17 ± 0.26	3.31 ± 0.17	–	–
DGNSLLSSIECYDPIIDSWEVVTS [KLHL12]	3.29 ± 0.33	3.47 ± 0.47	–	–
RKAAKSLIKLGLERFHGVGILGFN [ACSBG2]	2.64 ± 0.49	2.51 ± 0.35	–	–
LASRIRSNKKMLLLVGGLPPGPDR [KLHL14]	2.32 ± 0.17	2.34 ± 0.42	–	–
KEQSKELQMKLEKLREKERKKEAK [FAM50A]	5.02 ± 0.54	5.55 ± 0.16	–	–
DEEQQVLLSRLEEEEQDILQRLRE [TRIM39]	5.27 ± 0.098	5.28 ± 0.33	–	–
ESTNPEKAHETLHQSLSLASSPKG [CDC25A]	5.37 ± 0.37	5.45 ± 0.27	–	–
GRKQPGVHEEPVLKKWPKLKSKK [C22orf31]	–	–	5.16 ± 0.26	5.08 ± 0.24
KHLLNLGVEIDEINVYGNTALHIA [ANKRD44]	2.19 ± 0.34	2.07 ± 0.48	–	–
NNKYSYTSNSDDNMLKNIELFDKL [KCTD10]	3.9 ± 0.068	3.9 ± 0.26	–	–
RGDLWISWEEGMKVFEELLLDADW [CRY1]	2.31 ± 0.41	2.4 ± 0.29	–	–
RGKIHAFRGQILGFWEEERPFWEE [CCDC70]	2.42 ± 0.14	2.47 ± 0.24	–	–
CGGSGGGGGGGGGGGGCSSGSSYC [LURAP1L]	3.28 ± 0.46	3.22 ± 0.22	–	–
PALHPAHAPQISYTGPSSSGRFAG [NCK2]	4.02 ± 0.15	4.15 ± 0.12	–	–
ASAPTYPSLYSSYHQGCLVNPTGN [NANOGP8]	3.29 ± 0.19	3.44 ± 0.17	–	–
YSRGYRNRRSSRETREYAPPSRGH [RBMY1A1]	4.38 ± 0.27	4.76 ± 0.23	–	–
VVRICCIRSFGHFIARLQGSILQF [SMG5]	2.57 ± 0.37	2.66 ± 0.57	–	–
TPEDSDPDHFDTAILFTRQDLCGV [ADAMTS4]	4.15 ± 0.092	4.18 ± 0.17	–	–
MEEMSGESVVSSAVPAAATRTTSF [KCTD10]	4.76 ± 0.28	4.82 ± 0.49	–	–
VTASPPTDLIWKNQNSWGTGEDVK [LMNB1]	4.36 ± 0.26	4.37 ± 0.24	–	–

Sequence	protein stability index [1]	protein stability index [2]	protein stability index [3]	protein stability index [4]
AVVHEYALAVCLSFFYPVLFVLFM [SOAT1]	3.29 ± 0.42	3.02 ± 0.21	–	–
LPDVEPAAFLALLRFLYSDEVQIG [BTBD1]	2.16 ± 0.43	2.28 ± 0.28	–	–
WLSDWVTSYKVMVSNDSHTWVTVK [CPXM2]	2.67 ± 1.5	2.56 ± 0.2	–	–
DSGDVSNVIEKVKCILKTPGKINC [RHOBTB3]	2.92 ± 0.21	2.87 ± 0.5	–	–
QKLLEQTQIIGEQNARLAELERKL [FBXO28]	4.15 ± 0.082	4.24 ± 0.38	–	–
LQLSEFLCEEFRNRNQRIVQLIQD [CPN1]	2.56 ± 0.25	2.71 ± 0.39	–	–
STICFGQGAARGFKSNKKKTKQC [ZNF511]	–	–	4.86 ± 0.14	4.71 ± 0.32
KEGEGEVGGEAVEVEEVENVQTEF [TRIM55]	5.716 ± 0.023	5.59 ± 0.37	–	–
DVVEYLVDRCGASVEAGGSVHFDG [FEM1A]	2.48 ± 0.32	2.46 ± 0.6	–	–
IWVPIKIGALTYFAQADALKGTLV [ACSBG2]	2.76 ± 0.71	3.08 ± 0.67	–	–
CPIDQHHRNQCQYCRLKKCLKVGM [NR2F2]	2.97 ± 0.038	3.36 ± 0.36	–	–
VLEDNIIVSEVQFVESSGGGSSAV [BRF1]	3.75 ± 0.21	3.89 ± 0.27	–	–
SSCFFIESCGAQVPVEGSRRETSI	3 ± 0.38	2.79 ± 0.033	–	–
GRTGTLIACYVMKHYRFTHAEIIA [CDC14A]	2.74 ± 0.89	3.11 ± 0.45	–	–
HCKEKRKTSLLDQLTNTSGTVIGV [NETO1]	3.37 ± 0.24	3.34 ± 0.31	–	–
AGAPPPSGSAVSTAPQQKPIGKIS [SRPK2]	5.01 ± 0.26	5.04 ± 0.24	–	–
RRDYLLLVMEGTDDGRLLEYDTVT [APMAP]	2.26 ± 0.32	2.72 ± 0.13	–	–
LARRRRRRQARREAEADKPRRLGR [NOP53]	4.63 ± 0.093	4.75 ± 0.42	–	–
TVGIYFGLVYRIHSVLQGFIPLFQ [TMEM40]	3.16 ± 0.58	3.16 ± 0.54	–	–
QPVKTAGEITQHNVTELLRDVAAW [DNAAF3]	3.73 ± 0.32	3.75 ± 0.27	–	–
